Data set [1] concerns the target pZIP14-ECD C147S mutant (Pteropus alecto). Description: SEC; purified protein on a size exclusion column; elution volume compared with standard proteins eluted on the same column.
Data set [2] has as its target extracellular domain of ZIP14 from Pteropus alecto (Pteropus alecto). The description is as above.
Data set [3] deals with the molecule itself. Description: cross-linking; disulfide through an engineered cysteine; full-length hZIP4-HA transiently expressed in HEK293T cells; 4-20% gradient SDS-PAGE with or without 5% β-mercaptoethanol, western blot with anti-HA.
Data set [4] concerns the molecule itself. In words: SEC; purified protein on a size exclusion column; elution volume compared with standard proteins eluted on the same column.

With “pZIP14-ECD C147S mutant (from UniProt A5D7L5 61-174) (domain or fragment)”, the stoichiometry N in data set [1] was found to be 2. Turning to “extracellular domain of ZIP14 from Pteropus alecto (from UniProt A5D7L5 61-174) (domain or fragment)”, the stoichiometry N in data set [2] came out at 2.

B1: full-length human ZIP4 S297C mutant with C-terminal HA tag (natural protein, UniProt Q6P5W5-1 23-647, looked up)
chain: SPPAGLLSLLTSGQGALDQEALGGLLNTLADRVHCANGPCGKCLSVEDALGLGEPEGSGLPPGPVLEARYVARLSAAAVLYLSNPEGTCEDARAGLWASHADHLLALLESPKALTPGLSWLLQRMQARAAGQTPKMACVDIPQLLEEAVGAGAPGSAGGVLAALLDHVRSGSCFHALPSPQYFVDFVFQQHSSEVPMTLAELSALMQRLGVGREAHSDHSHRHRGASSRDPVPLISSSNSSSVWDTVCLSARDVMAAYGLSEQAGVTPEAWAQLCPALLQQQLSGACTSQSRPPVQDQLSQSERYLYGSLATLLICLCAVFGLLLLTCTGCRGVTHYILQTFLSLAVGAVTGDAVLHLTPKVLGLHTHSEEGLSPQPTWRLLAMLAGLYAFFLFENLFNLLLPRDPEDLEDGPCGHSSHSHGGHSHGVSLQLAPSELRQPKPPHEGSRADLVAEESPELLNPEPRRLSPELRLLPYMITLGDAVHNFADGLAVGAAFASSWKTGLATSLAVFCHELPHELGDFAALLHAGLSVRQALLLNLASALTAFAGLYVALAVGVSEESEAWILAVATGLFLYVALCDMLPAMLKVRDPRPWLLFLLHNVGLLGGWTVLLLLSLYEDDITF
notes: Human zinc transporter ZIP4 (SLC39A4), GenBank BC062625, with S297C (S297 is equivalent to S293 in pZIP4); Intermolecular disulfide C297-C297* in the dimer; also called S297C mutant ZIP4; source: HEK293T, transiently transfected, in lysate; not shown: HA, C-terminal, kept
As for B1, the “stoichiometry N” value in data set [3] is 2.

B2: ZIP4 extracellular domain from Pteropus alecto (black fruit bat) (domain or fragment, UniProt L5KLU7 36-322, looked up)
chain: SGQGALDRVALGGLLNTLAARVHCTSGPCGKCLSVDDLLALGRPEEPGHLARLSAAAALYLSDPEGTCEDIRAGRWASRADHLLALLEGPKALAPGLSRLLQRIQAQTTGQPSAGEACVDPPQLLREAGVAGAPGSPGPVLATLLEHVGRGSCFHTLPTPQYFVDFVFQQSHGNTPNISVAELAALMQRLGVGGVTETHSDHHHQEKRVNRQGPTPLTAPNSSSDTWDTVCLSARDVMAVYGLSEQTGVTPEAWAQLSPALLQQQLSGACSPQPSHPAQNQLSQAEK
notes: Zinc transporter ZIP4 (SLC39A4) of Pteropus alecto, GenBank ELK11751, residues 36-322 (extracellular domain: HRD 36-191 and PCD 192-322); A selenomethionine-substituted form was also crystallised for phasing; Four intramolecular disulfide bonds (C59-C64, C67-C103, C153-C188, C266-C305); also called pZIP4-ECD; ZIP4-ECD; source: E. coli Origami B(DE3) pLysS, purified (Ni-NTA, Mono-Q, SEC); not …
Consider B2, for which, in data set [4], the “stoichiometry N” value turned out to be 2.

Values taken from paper PMC4915132, “Structural insights of ZIP4 extracellular domain critical for optimal zinc transport” (Nature Communications, 2016).
